Results from patent US20210292761, “COMPOSITIONS COMPRISING CIRCULAR POLYRIBONUCLEOTIDES AND USES THEREOF” (FLAGSHIP PIONEERING INNOVATIONS VI, LLC, published 2021).

How the values were obtained:
[1] = system: NF-kB (endogenous, A549 cells) (Homo sapiens); experiment: cell_activity; conditions: A549, day 2 (89% day 1); 1 pmol transfected; indirect evidence of binding
[2] = biological target: T1, NF-kB p50 subunit (NFKB1) (UniProt P19838 P19838:1-433); experiment: EMSA; scrambled control, same buffer; conditions: tags: Cayman Chemical 10009818; chain copies: 2; hairpin; printed with T, is RNA
Description: (§1) Electrophoretic mobility shift assay (EMSA) was performed to assess circular RNA binding affinity to NF-kB. One pmole of linear or circular RNA was incubated with recombinant NF-kB p50 subunit (Caymen Chemical, 10009818) at varying concentrations over the RNA concentration (i.e., 0, 0.1, 1, 10 pmoles of protein) for 20 minutes at room temperature in a buffered reaction (20 mM Tris-HCl, pH 8.0, 50 mM NaCl, 1 mM MgCl2). Samples were run a 6% TBE Urea gel for 25 minutes at 200V. Gels were stained with SybrGold (Thermo Scientific, S11494) and imaged with a blue E-gel imaging system (Thermo Scientific, 4466612).

[3] = biological target: T1, NF-kB p50 subunit (NFKB1); experiment: EMSA; 1 pmol RNA, 0-10 pmol p50; 20 mM Tris-HCl pH 8.0, 50 mM NaCl, 1 mM MgCl2, RT 20 min; affinity similar to linear; conditions: tags: Cayman Chemical 10009818; chain copies: 2; circular (ligated with RNA ligase 1), aptamer hairpin with poly(A) flanks; printed with T, is RNA
Description: as §1

[4] = biological target: T1, NF-kB p50 subunit (NFKB1); experiment: EMSA; 1 pmol RNA, 0-10 pmol p50; 20 mM Tris-HCl pH 8.0, 50 mM NaCl, 1 mM MgCl2, RT 20 min; affinity similar to circular; conditions: tags: Cayman Chemical 10009818; chain copies: 2; linear; printed with T, is RNA
Description: as §1

T1 sequence (P19838 1-433, one chain of several): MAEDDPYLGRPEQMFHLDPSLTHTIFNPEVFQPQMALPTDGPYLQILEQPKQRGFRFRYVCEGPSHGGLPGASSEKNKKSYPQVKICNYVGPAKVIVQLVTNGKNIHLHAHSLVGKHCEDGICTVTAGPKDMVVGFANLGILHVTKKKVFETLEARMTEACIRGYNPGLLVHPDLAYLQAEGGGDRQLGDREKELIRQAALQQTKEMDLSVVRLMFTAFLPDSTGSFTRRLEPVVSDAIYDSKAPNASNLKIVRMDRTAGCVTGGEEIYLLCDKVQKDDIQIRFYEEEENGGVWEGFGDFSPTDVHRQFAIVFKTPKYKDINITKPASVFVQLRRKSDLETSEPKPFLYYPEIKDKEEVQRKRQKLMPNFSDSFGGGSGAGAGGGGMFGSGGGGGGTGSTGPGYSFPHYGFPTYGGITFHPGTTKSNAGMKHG

With “AAAAAAAAAAGAUCUUGAAACUGUUUUAAGGUUGGCCGAUCUUAAAAAA [circular NF-kB aptamer RNA]” the activity [1] was 86 % viability.

B1: scrambled control RNA (ssRNA)
RNA: AAAAAAAUUCUCCGAACGUGUCACGUUUCAAGAGAACGUGACACGUUCGGAGAAAAAAAA
B1: no binding [2].

AAAAAAAAAAGAUCUUGAAACUGUUUUAAGGUUGGCCGAUCUUAAAAAA (ssRNA) [circular NF-kB aptamer RNA]: binds [3].

AAAAAAAAAAGAUCUUGAAACUGUUUUAAGGUUGGCCGAUCUUAAAAAA (ssRNA, 5' monophosphate) [linear NF-kB aptamer RNA]: binds [4].
